Laboratory results taken from US20100055110A1 (XOMA TECHNOLOGY, published 2010).

Target: recombinant human IL-1β (human, UniProt P01584 117-269)
Assay: cell-based or functional assay

- IC50 (read off the curve); % inhibition of IL-6 release from human fibroblasts stimulated with IL-1 beta at 100 pg/ml: ~0.2 nM
B1: AB1 (antibody, V domains shown)
VH: QVTLKESGPGILKPSQTLSLTCSFSGFSLSTSGMGVGWIRQPSGKGLEWLAHIWWDGDESYNPSLKTQLTISKDTSRNQVFLKITSVDTVDTATYFCARARYDPPWFVDWGQGTLVTVSS
VL: DIQMTQTTSSLSASLGDRVTISCRASQDISNYLSWYQQKPDGTVKLLIYYTSKLHSGVPSRFSGSGSGTDYSLTISNLEQEDIATYFCLQGKMLPWTFGGGTKLEIK
